Patent US20250115663A1 (CELLDEX THERAPEUTICS, published 2025)
Residue numbers refer to the chain shown, from its start.

Assays:
[1] = target: T1, soluble human CD40-MsIgG2a (human, UniProt P25942); experiment: BLI (Octet QKe), antibody captured on anti-human Fc (AHC) biosensors, analyte soluble human CD40-MsIgG2a 3.13 to 0.098 nM, 25 C, 1:1 fit
T1 construct: soluble, fused to mouse IgG2a; also called recombinant human CD40-msG2a chimeric protein; CD40-MsIgG2a (Celldex, 60 kD by SDS-PAGE)
Experimental: Purified antibodies from Example 1 were captured on Anti-Human Fc Capture (AHC) biosensors (Fortebio Product No. 18-5060). Each antibody was prepared in dilution buffer (10mMPO4+150 mM NaCl+1 mg/mL BSA+0.5% Tween 20, pH 7.2) to 0.5 μg/mL and loaded on freshly hydrated AHC biosensors for 35-50 sec at 25° C. and 1000 rpm plate shake speed to achieve a target response of 0.2 nm. Low levels of ligand were captured to limit any effects of mass transport of analyte on kinetic parameters. For one assay, eight biosensors were loaded with the same antibody.
Binding was determined by exposing six of the antibody loaded biosensors to analyte: soluble human CD40-MsIgG2a (Celldex, 60 kD by SDS-PAGE). Affinity measurements were determined using 2-fold serial dilutions of analyte ranging from 3.13 to 0.098 nM in dilution buffer at 25° C. and 1000 rpm plate shake speed. Association of the antibody loaded biosensors in analyte wells was carried out for 1200 seconds, the biosensors were then moved to dilution buffer wells for 2.5 hrs (9000 sec) for dissociation measurements.
Fortebio's Data Analysis Software version 8.2.0.7 (Pall ForteBio, Menlo Park, CA) was used in each case to derive kinetic parameters from the concentration series of analyte in dilution buffer binding to captured antibody. The association and dissociation curves were fitted to a 1:1 binding model using the data analysis software according to the manufacturer's guidelines.

[2] = target: T2, kappa-sCD40(1-94)-Flag point mutant T35E (human, UniProt P25942 21-114); experiment: ELISA, mutated kappa-sCD40(1-94)-Flag captured on anti-Flag antibody, detection anti-human IgG Fc-HRP; the concentration axis is taken as that of 3C3
T2 construct: not shown: N-terminal human kappa light chain; C-terminal Flag tag
T2 chain: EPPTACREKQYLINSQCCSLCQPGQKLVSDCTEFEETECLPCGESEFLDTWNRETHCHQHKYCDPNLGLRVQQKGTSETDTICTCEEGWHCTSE
Experimental: (§1) 1 μg/ml of purified kappa-sCD40-Flag fusion proteins or CHO cell supernatants containing the sCD40 fusion proteins were captured to microtiter plates that were pre-coated with 5 μg/ml mouse anti-Flag antibody (Sigma) in PBS and blocked with 5% bovine serum albumin in PBS. Following incubation with the CD40 antibody, the microplates were washed with PBS/Tween, and incubated with a goat anti-human IgG Fc polyclonal reagent conjugated to horseradish peroxidase. After washing, the plates were developed with HRP substrate, and analyzed at OD 450-650 using a microtiter plate reader. An ELISA with a goat anti-human IgG Fab2-HRP to measure kappa chain binding was carried out in parallel to validate the sCD40 fusion protein expression from different transfections.

[3] = target: T3, kappa-sCD40(1-94)-Flag point mutant E33A (human, UniProt P25942 21-114); experiment: as above
T3 construct: not shown: N-terminal human kappa light chain; C-terminal Flag tag
T3 chain: T2 chain with E33A, E35T
Experimental: as §1

[4] = target: T4, kappa-sCD40(1-94)-Flag point mutant E1G (human, UniProt P25942 22-114); experiment: as above
T4 construct: not shown: N-terminal human kappa light chain; C-terminal Flag tag
Experimental: as §1

[5] = target: T5, kappa-sCD40(1-94)-Flag point mutant T4V (human, UniProt P25942 21-114); experiment: as above
T5 construct: not shown: N-terminal human kappa light chain; C-terminal Flag tag
T5 chain: T2 chain with T4V, E35T
Experimental: as §1

[6] = target: T6, kappa-sCD40(1-94)-Flag point mutant P3S (human, UniProt P25942 21-114); experiment: as above
T6 construct: not shown: N-terminal human kappa light chain; C-terminal Flag tag
T6 chain: T2 chain with P3S, E35T
Experimental: as §1

[7] = target: T7, kappa-sCD40(1-94)-Flag point mutant P2Q (human, UniProt P25942 21-114); experiment: as above
T7 construct: not shown: N-terminal human kappa light chain; C-terminal Flag tag
T7 chain: T2 chain with P2Q, E35T
Experimental: as §1

[8] = target: T8, kappa-sCD40(1-94)-Flag point mutant F34L (human, UniProt P25942 21-114); experiment: as above
T8 construct: not shown: N-terminal human kappa light chain; C-terminal Flag tag
T8 chain: T2 chain with F34L, E35T
Experimental: as §1

[9] = target: T9, kappa-sCD40(1-94)-Flag point mutant E36K (human, UniProt P25942 21-114); experiment: as above
T9 construct: not shown: N-terminal human kappa light chain; C-terminal Flag tag
T9 chain: T2 chain with E35T, E36K
Experimental: as §1

B1: anti-CD40 human monoclonal antibody 3G5 (antibody, human IgG2, V domains shown)
VH: QVQLVESGGGVVQPGKSLRLSCAASGFTFSSNGIHWVRQAPGKGLEWVAVIWSDGSNKFYADSVKGRFTISRDNSKNTLYLQMNSLRAEDTAVYYCARASGSGSYYNFFDYWGQGTLVTVSS
VL: EIVMTQSPATLSVSPGERATLSCRASQSVRSNLAWYQQKPGQAPRLLIYGASTRATGIPARFSGSGSGTEFTLTINSLQSEDFAVYYCQQHNKWITFGQGTRLEIK
notes: Human IgG2
In the case of B1, the Kd [1] is reported as 3.3 pM.

B2: anti-CD40 human monoclonal antibody 3C3 (antibody, human IgG2, kappa, V domains shown)
VH: QVQLVESGGGVVQPGRSLRLSCAGSGFIFSRYGMYWVRQAPGKGLEWVAVIWYDGSYKYYADSVKGRFTISRDNSKNTLYLQMNSLRAEDTAVYYCARESPWYYFDYWGQGTLVTVSS
VL: DIQMTQSPSSLSASVGDRVTITCRASQGISNYLAWYQQKPGKVPKLLIYAASTLQSGVPSRFSGSGSGTDFTLTISSLQPEDVATYYCQKYKSAPFTFGPGTKVDIKR
notes: Human IgG2, C-terminal lysine removed; also called anti-CD40 mAb 3C3; CD40 antibody 3C3
With B2 the Kd [1] was 10.7 pM, the kon [1] was 813000 M⁻¹ s⁻¹ and the “EC50 (read off the curve)” value [2] was about 0.02 µg/mL. For the same binder, the “EC50 (read off the curve)” value [3] was about 0.2 µg/mL, the “EC50 (read off the curve)” value [4] was about 0.04 µg/mL and the “EC50 (read off the curve)” value [5] was about 0.02 µg/mL. For the same binder, the “EC50 (read off the curve)” value [6] was about 0.03 µg/mL, the “EC50 (read off the curve)” value [7] was about 0.02 µg/mL and the “EC50 (read off the curve)” value [8] was about 0.06 µg/mL. The “EC50 (read off the curve)” value [9] was about 0.09 µg/mL.
